# T1: murine IL-7 receptor (mouse (endogenous in IxN/2b), UniProt P16872 21-459)
# T1 sequence: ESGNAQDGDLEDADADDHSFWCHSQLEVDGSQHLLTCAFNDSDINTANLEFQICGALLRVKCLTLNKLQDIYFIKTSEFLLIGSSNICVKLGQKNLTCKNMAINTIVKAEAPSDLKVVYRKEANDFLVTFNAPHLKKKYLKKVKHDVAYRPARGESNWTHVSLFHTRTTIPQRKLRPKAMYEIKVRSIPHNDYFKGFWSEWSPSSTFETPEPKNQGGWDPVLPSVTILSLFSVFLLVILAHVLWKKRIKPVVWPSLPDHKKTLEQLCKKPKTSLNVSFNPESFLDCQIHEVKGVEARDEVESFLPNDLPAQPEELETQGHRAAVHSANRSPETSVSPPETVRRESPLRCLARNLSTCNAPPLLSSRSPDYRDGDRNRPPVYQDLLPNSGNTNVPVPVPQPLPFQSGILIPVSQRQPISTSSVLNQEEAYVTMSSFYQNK
# B1: 125I-labeled recombinant murine IL-7 (ligand)
# chain: ECHIKDKEGKAYESVLMISIDELDKMTGTDSNCPNNEPNFFRKHVCDDTKEAAFLNRAARKLKQFLKMNISEEFNVHLLTVSQGTQTLVNCTSKEEKNVKEQKKNDACFLKRLLREIKTCWNKILKGSI
# modifications: 125I on the single tyrosine residue (amino acid 12), nearly quantitatively radiolabeled
# Assays:
# murine IL-7 receptor [1] = molecular target: T1, murine IL-7 receptor; test: radioligand binding
# murine IL-7 receptor [2] = molecular target: T1, murine IL-7 receptor; test: radioligand binding; remark: listed apart in the source
binder,measurement,setting,value
B1,"apparent Ka, low affinity component",murine IL-7 receptor [1],4.8e+08 M⁻¹
same,"apparent Ka, high affinity component",murine IL-7 receptor [2],1.2e+10 M⁻¹
